Experimental data: doi:10.1101/2024.12.16.628697

Molecular target: USP1/UAF1 (UniProt O94782)
Experiment: global kinetic fit

Chain of UniProt O94782 (O94782 21-785 G670A/G671A, chain 1 of 2): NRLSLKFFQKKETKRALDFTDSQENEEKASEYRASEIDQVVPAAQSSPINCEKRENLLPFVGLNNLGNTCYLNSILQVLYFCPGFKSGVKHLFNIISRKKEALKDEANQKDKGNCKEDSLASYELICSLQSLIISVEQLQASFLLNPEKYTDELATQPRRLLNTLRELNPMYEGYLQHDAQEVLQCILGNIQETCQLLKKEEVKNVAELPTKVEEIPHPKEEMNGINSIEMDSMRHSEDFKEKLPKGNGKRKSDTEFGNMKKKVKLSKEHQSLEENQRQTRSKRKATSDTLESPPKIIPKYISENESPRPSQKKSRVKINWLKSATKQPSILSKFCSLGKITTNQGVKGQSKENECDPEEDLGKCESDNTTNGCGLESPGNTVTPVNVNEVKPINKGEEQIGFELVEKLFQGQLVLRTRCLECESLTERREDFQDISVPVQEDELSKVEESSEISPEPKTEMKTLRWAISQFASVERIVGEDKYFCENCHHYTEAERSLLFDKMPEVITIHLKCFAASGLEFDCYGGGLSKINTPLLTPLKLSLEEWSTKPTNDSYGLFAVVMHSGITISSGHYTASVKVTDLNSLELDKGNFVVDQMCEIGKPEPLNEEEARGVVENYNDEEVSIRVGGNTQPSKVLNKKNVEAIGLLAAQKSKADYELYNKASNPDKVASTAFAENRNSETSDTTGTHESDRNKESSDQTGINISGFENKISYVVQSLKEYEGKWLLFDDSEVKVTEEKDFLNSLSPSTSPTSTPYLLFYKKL
Chain of UniProt O94782 (Q8TAF3 9-677, chain 2 of 2, further chain): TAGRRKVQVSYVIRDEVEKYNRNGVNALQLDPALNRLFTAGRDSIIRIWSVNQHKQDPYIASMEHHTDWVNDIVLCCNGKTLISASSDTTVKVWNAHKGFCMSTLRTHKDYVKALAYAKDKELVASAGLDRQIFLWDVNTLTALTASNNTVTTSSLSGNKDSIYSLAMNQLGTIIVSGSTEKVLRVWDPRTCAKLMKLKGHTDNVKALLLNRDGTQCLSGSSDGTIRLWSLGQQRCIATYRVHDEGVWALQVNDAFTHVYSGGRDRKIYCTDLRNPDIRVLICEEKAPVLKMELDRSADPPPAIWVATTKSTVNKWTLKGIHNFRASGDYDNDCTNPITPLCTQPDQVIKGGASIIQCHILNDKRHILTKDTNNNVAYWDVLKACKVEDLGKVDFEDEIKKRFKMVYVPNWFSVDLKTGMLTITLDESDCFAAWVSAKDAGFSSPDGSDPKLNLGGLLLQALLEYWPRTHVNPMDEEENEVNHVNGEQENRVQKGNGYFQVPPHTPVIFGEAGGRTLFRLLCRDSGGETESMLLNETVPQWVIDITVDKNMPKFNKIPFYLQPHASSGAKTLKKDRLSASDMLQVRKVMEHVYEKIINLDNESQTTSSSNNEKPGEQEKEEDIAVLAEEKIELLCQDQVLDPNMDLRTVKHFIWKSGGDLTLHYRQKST

koff: 1240 s⁻¹
Substance: K63-linked diubiquitinated PCNA (K63-PCNA-Ub2) (from UniProt P12004 1-261; P0CG48 1-76; P0CG48 1-76) (complex)
